Test results as given in paper PMC12120888, “Phosphorylation of MdWRKY70L by MdMPK6/02G mediates reactive oxygen accumulation to regulate apple fruit senescence”.

T1: MdWRKY70L (Malus domestica, UniProt A0A7S5EAY7 1-303)
T1 sequence: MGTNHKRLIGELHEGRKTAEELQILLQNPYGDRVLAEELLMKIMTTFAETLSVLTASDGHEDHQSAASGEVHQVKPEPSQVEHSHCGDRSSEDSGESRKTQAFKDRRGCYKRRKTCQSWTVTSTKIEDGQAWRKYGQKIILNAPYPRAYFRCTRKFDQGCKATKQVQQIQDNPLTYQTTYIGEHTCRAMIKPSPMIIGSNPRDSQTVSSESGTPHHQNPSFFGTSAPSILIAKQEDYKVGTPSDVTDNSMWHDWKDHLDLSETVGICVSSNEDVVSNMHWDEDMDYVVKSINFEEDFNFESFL


Tests used:
[1] = target: T1, MdWRKY70L; assay: EMSA; LightShift Chemiluminescent EMSA kit (Thermo); buffer, salt, pH and temperature not stated; conditions: protein: recombinant; tags: GST (Results); His (EMSA Methods, pET32a); label: 3' biotin, both strands; blunt
[2] = target: T1, MdWRKY70L; assay: competition; 25x, 50x, 100x cold probe vs hot probe N3; LightShift Chemiluminescent EMSA kit (Thermo); buffer, salt, pH and temperature not stated; conditions: protein: recombinant; tags: GST (Results); His (EMSA Methods, pET32a); blunt
[3] = target: T1, MdWRKY70L; assay: competition; 25x, 50x, 100x cold probe vs hot probe N1; LightShift Chemiluminescent EMSA kit (Thermo); buffer, salt, pH and temperature not stated; conditions: protein: recombinant; tags: GST (Results); His (EMSA Methods, pET32a); blunt

Row | Binder | binding result [1] | other results
1 | MdSAG101 W-box hot probe (dsDNA) DNA 1: TCTATATAAAGAGAGACATATTGACCATTCCGGTATCCTCTTCTCT DNA 2: AGAGAAGAGGATACCGGAATGGTCAATATGTCTCTCTTTATATAGA | binds | –
2 | MdSAG101 W-box cold probe (dsDNA) DNA 1: TCTATATAAAGAGAGACATATTGACCATTCCGGTATCCTCTTCTCT DNA 2: AGAGAAGAGGATACCGGAATGGTCAATATGTCTCTCTTTATATAGA | – | binding result [2]: binds
3 | MdSAG101 W-box mutant probe (dsDNA) DNA 1: TCTATATAAAGAGAGACATATCGGCTATTCCGGTATCCTCTTCTCT DNA 2: AGAGAAGAGGATACCGGAATAGCCGATATGTCTCTCTTTATATAGA | no binding | –
4 | MdZAT12 W-box hot probe (dsDNA) DNA 1: CATTGATCTGGATTTCTGTGCTGACTCAGACTCATCGTGGATGCTT DNA 2: AAGCATCCACGATGAGTCTGAGTCAGCACAGAAATCCAGATCAATG | binds | –
5 | MdZAT12 W-box mutant probe (dsDNA) DNA 1: CATTGATCTGGATTTCTGTGCGGCCGCAGACTCATCGTGGATGCTT DNA 2: AAGCATCCACGATGAGTCTGCGGCCGCACAGAAATCCAGATCAATG | no binding | –
6 | MdZAT12 W-box cold probe (dsDNA) DNA 1: CATTGATCTGGATTTCTGTGCTGACTCAGACTCATCGTGGATGCTT DNA 2: AAGCATCCACGATGAGTCTGAGTCAGCACAGAAATCCAGATCAATG | – | binding result [3]: binds
